These results are taken from publication PMC6992768, “Loss-of-function mutations in UDP-Glucose 6-Dehydrogenase cause recessive developmental epileptic encephalopathy” (Nature Communications, 2020).

The data set deals with the molecule itself. As to the kind of experiment: SEC; analytical gel filtration of each apoprotein alone; 1x PBS with 1 mM DTT, 0.5 mL/min, Superdex gel filtration column, elution followed by A280; peaks compared with known hexamer, dimer and monomer elution times. (Size exclusion chromatography separates by hydrodynamic size, large species first.)

B1: UGDH ∆132 (enzyme, human, UniProt O60701 1-494, looked up)
chain: MFEIKKICCIGAGYVGGPTCSVIAHMCPEIRVTVVDVNESRINAWNSPTLPIYEPGLKEVVESCRGKNLFFSTNIDDAIKEADLVFISVNTPTKTYGMGKGRAADLKYIEACARRIVQNSNGYKIVTEKSTPVRAAESIRRIFDANTKPNLNLQVLSNPEFLAEGTAIKDLKNPDRVLIGGDETPEGQRAVQALCAVYEHWVPREKILTTNTWSSELSKLAANAFLAQRISSINSISALCEATGADVEEVATAIGMDQRIGNKFLKASVGFGGSCFQKDVLNLVYLCEALNLPEVARYWQQVIDMNDYQRRRFASRIIDSLFNTVTDKKIAILGFAFKKDTGDTRESSSIYISKYLMDEGAHLHIYDPKVPREQIVVDLSHPGVSEDDQVSRLVTISKDPYEACDGAHAVVICTEWDMFKELDYERIHKKMLKPAFIFDGRRVLDGLHNELQTIGFQIETIGKKVSSKRIPYAPSGEIPKFSLQDPPNKKPKV
notes: source: purified recombinant; expression not described for this mutant
In the case of B1, the binding result is on record as “binds”.

B2: UGDH A44V (enzyme, human, UniProt O60701 1-494, looked up)
chain: MFEIKKICCIGAGYVGGPTCSVIAHMCPEIRVTVVDVNESRINVWNSPTLPIYEPGLKEVVESCRGKNLFFSTNIDDAIKEADLVFISVNTPTKTYGMGKGRAADLKYIEACARRIVQNSNGYKIVTEKSTVPVRAAESIRRIFDANTKPNLNLQVLSNPEFLAEGTAIKDLKNPDRVLIGGDETPEGQRAVQALCAVYEHWVPREKILTTNTWSSELSKLAANAFLAQRISSINSISALCEATGADVEEVATAIGMDQRIGNKFLKASVGFGGSCFQKDVLNLVYLCEALNLPEVARYWQQVIDMNDYQRRRFASRIIDSLFNTVTDKKIAILGFAFKKDTGDTRESSSIYISKYLMDEGAHLHIYDPKVPREQIVVDLSHPGVSEDDQVSRLVTISKDPYEACDGAHAVVICTEWDMFKELDYERIHKKMLKPAFIFDGRRVLDGLHNELQTIGFQIETIGKKVSSKRIPYAPSGEIPKFSLQDPPNKKPKV
notes: human UDP-glucose 6-dehydrogenase (UGDH) with the patient variant A44V, made from WT-UGDH pET28a; Germline variant found in patients (families 1, 11, 13); Eluted mainly as a dimer by gel filtration; also called p.A44V; p.Ala44Val
For the protein B2, the stoichiometry N (in general, a count of units in the complex or per binding partner) was 2.

B3: UGDH T325D (enzyme, human, UniProt O60701 1-494, looked up)
chain: MFEIKKICCIGAGYVGGPTCSVIAHMCPEIRVTVVDVNESRINAWNSPTLPIYEPGLKEVVESCRGKNLFFSTNIDDAIKEADLVFISVNTPTKTYGMGKGRAADLKYIEACARRIVQNSNGYKIVTEKSTVPVRAAESIRRIFDANTKPNLNLQVLSNPEFLAEGTAIKDLKNPDRVLIGGDETPEGQRAVQALCAVYEHWVPREKILTTNTWSSELSKLAANAFLAQRISSINSISALCEATGADVEEVATAIGMDQRIGNKFLKASVGFGGSCFQKDVLNLVYLCEALNLPEVARYWQQVIDMNDYQRRRFASRIIDSLFNDVTDKKIAILGFAFKKDTGDTRESSSIYISKYLMDEGAHLHIYDPKVPREQIVVDLSHPGVSEDDQVSRLVTISKDPYEACDGAHAVVICTEWDMFKELDYERIHKKMLKPAFIFDGRRVLDGLHNELQTIGFQIETIGKKVSSKRIPYAPSGEIPKFSLQDPPNKKPKV
notes: human UDP-glucose 6-dehydrogenase (UGDH) with T325D, made from WT-UGDH pET28a
With B3, the binding result is listed as “binds”.

B4: UDP-Glucose 6-Dehydrogenase (UGDH), wild type (enzyme, human, UniProt O60701 1-494, looked up)
chain: MFEIKKICCIGAGYVGGPTCSVIAHMCPEIRVTVVDVNESRINAWNSPTLPIYEPGLKEVVESCRGKNLFFSTNIDDAIKEADLVFISVNTPTKTYGMGKGRAADLKYIEACARRIVQNSNGYKIVTEKSTVPVRAAESIRRIFDANTKPNLNLQVLSNPEFLAEGTAIKDLKNPDRVLIGGDETPEGQRAVQALCAVYEHWVPREKILTTNTWSSELSKLAANAFLAQRISSINSISALCEATGADVEEVATAIGMDQRIGNKFLKASVGFGGSCFQKDVLNLVYLCEALNLPEVARYWQQVIDMNDYQRRRFASRIIDSLFNTVTDKKIAILGFAFKKDTGDTRESSSIYISKYLMDEGAHLHIYDPKVPREQIVVDLSHPGVSEDDQVSRLVTISKDPYEACDGAHAVVICTEWDMFKELDYERIHKKMLKPAFIFDGRRVLDGLHNELQTIGFQIETIGKKVSSKRIPYAPSGEIPKFSLQDPPNKKPKV
notes: human UDP-glucose 6-dehydrogenase (UGDH), codon-optimised E. coli expression construct WT-UGDH pET28a; also called UGDH^WT; WT-UGDH
In the case of B4, the binding result is “binds”.
